Molecular target: T1, human CD33 extracellular domain (human, UniProt P20138 18-259)
T1 construct: soluble monomeric ECD; also called human CD33 ECD; hCD33
Assay: BLI Octet, IgG loaded;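 further: IgGs captured on AHC biosensors, exposed to 100 nM antigen for 3 min association then 3 min dissociation in buffer, kinetics fitted with a 1:1 binding model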
Method: Briefly, ForteBio affinity measurements were performed by loading IgGs on-line onto AHC sensors. Sensors were equilibrated off-line in assay buffer for 30 min and then monitored on-line for 60 seconds for baseline establishment. Sensors with loaded IgGs were exposed to 100 nM antigen for 3 minutes, and afterwards were transferred to assay buffer for 3 min for off-rate measurement. All kinetics were analyzed using the 1:1 binding model.

Binder | Kd [nM] | koff [s⁻¹] | kon [M⁻¹ s⁻¹]
ADI-11828 IgG (antibody, V domains shown, IgG; also called Ab27) VH: EVQLVESGGGLVQPGGSLRLSCAASGFTFSSYWMSWVRQAPGKGLEWVANINQDGSEVYYVDSVKGRFTISRDNAKNSLYLQMNSLRAEDTAVYYCARDVGPGIAYQGHFDYWGQGTLVTVSS VL: DIQMTQSPSSLSASVGDRVTITCRASQSIYYYLNWYQQKPGKAPKLLIYAASSRQSGVPSRFSGSGSGTDFTLTISSLQPEDFATYYCQQVYDTPLTFGGGTKVEIK | 0.81 | 0.000533 | 658000
ADI-11826 IgG (antibody, V domains shown, IgG; also called Ab26) VH: EVQLVESGGGLVQPGGSLRLSCAASGFTFPGYWMSWVRQAPGKGLEWVANINQDGSEVYYVDSVKGRFTISRDNAKNSLYLQMNSLRAEDTAVYYCAREANYYGNVGDDYWGQGTLVTVSS VL: DIQMTQSPSSLSASVGDRVTITCRASQSIYNYLNWYQQKPGKAPKLLIYAASSTQSGVPSRFSGSGSGTDFTLTISSLQPEDFATYYCQQAFHVPITFGGGTKVEIK | 0.393 | 0.000243 | 619000
ADI-10163 IgG (antibody, V domains shown, IgG; also called Ab17) VH: QVQLQESGPGLVKPSQTLSLTCTVSGGSISSGGYYWSWIRQHPGKGLEWIGSIYYSGSTYYNPSLKSRVTISVDTSKNQFSLKLSSVTAADTAVYYCARDRLDYSYNYGMDVWGQGTTVTVSS VL: DIQMTQSPSSLSASVGDRVTITCRASQSISSYLNWYQQKPGKAPKLLIYGASSLQSGVPSRFSGSGSGTDFTLTISSLQPEDFATYYCQQVYSAPFTFGGGTKVEIK | 6.8 |  | 
ADI-11812 IgG (antibody, V domains shown, IgG; also called Ab24) VH: QVQLVQSGAEVKKPGASVKVSCKASGYTFEIYYMHWVRQAPGQGLEWMGIINPSSGSTVYAQKFQGRVTMTRDTSTSTVYMELSSLRSEDTAVYYCARGAGYDDEDMDVWGKGTTVTVSS VL: DIQMTQSPSSVSASVGDRVTITCRASQGIDSWLAWYQQKPGKAPKLLIYAASSLQSGVPSRFSGSGSGTDFTLTISSLQPEDFATYYCQQAHSYPLTFGGGTKVEIK | 1.91 | 0.000315 | 166000
ADI-11801 IgG (antibody, V domains shown, IgG; also called Ab4) VH: QVQLVQSGAEVKKPGASVKVSCKASGYTFSDYYMHWVRQAPGQGLEWMGMINPSWGSTSYAQKFQGRVTMTRDTSTSTVYMELSSLRSEDTAVYYCAREAADGFVGERYFDLWGRGTLVTVSS VL: not shown | 0.457 | 0.0002 | 438000
ADI-10173 IgG (antibody, V domains shown, IgG; also called Ab22) VH: QVQLVQSGAEVKKPGASVKVSCKASGYTFTSYYMHWVRQAPGQGLEWMGIINPSGGSTTYAQKFQGRVTMTRDTSTSTVYMELSSLRSEDTAVYYCAREAADGFVGERYFDLWGRGTLVTVSS VL: not shown | 9.7 |  | 

Further lines, results first:

Kd [nM] | koff [s⁻¹] | kon [M⁻¹ s⁻¹] | Binder
4.3 | 0.00148 | 344000 | ADI-10164 IgG (antibody, V domains shown, IgG; also called Ab18) VH: QVQLQESGPGLVKPSETLSLTCAVSGYSISSGYYWGWIRQPPGKGLEWIGSIYHSGSTNYNPSLKSRVTISVDTSKNQFSLKLSSVTAADTAVYYCARLPPWFGFSYFDLWGRGTLVTVSS VL: EIVLTQSPATLSLSPGERATLSCRASQSVSSYLAWYQQKPGQAPRLLIYDASNRATGIPARFSGSGSGTDFTLTISSLEPEDFAVYYCQQVDNYPPTFGGGTKVEIK
≤ 0.575 | ≤ 0.0002 | 348000 | ADI-10159 IgG (antibody, V domains shown, IgG; also called Ab1; G59) VH: EVQLVESGGGLVQPGGSLRLSCAASGFTFSSYGMSWVRQAPGKGLEWVANIKQDGSEKYYVDSVKGRFTISRDNAKNSLYLQMNSLRAEDTAVYYCAREGGPYYDSSGYFVYYGMDVWGQGTTVTVSS VL: DIQMTQSPSTLSASVGDRVTITCRASQSISSWLAWYQQKPGKAPKLLIYDASSLESGVPSRFSGSGSGTEFTLTISSLQPDDFATYYCQQYESFPTFGGGTKVEIK
0.294 | 0.0002 | 679000 | ADI-11776 IgG (antibody, V domains shown, IgG; also called Ab3; H76) VH: EVQLLESGGGLVQPGGSLRLSCAASGFTFSKYTMSWVRQAPGKGLEWVSAIVGSGESTYFADSVKGRFTISRDNSKNTLYLQMNSLRAEDTAVYYCAREGGPYYDSSGYFVYYGMDVWGQGTTVTVSS VL: DIQMTQSPSTLSASVGDRVTITCRASQSISSWLAWYQQKPGKAPKLLIYKASSLESGVPSRFSGSGSGTEFTLTISSLQPDDFATYYCQQYDDLPTFGGGTKVEIK
5.1 | 0.00325 | 638000 | ADI-10160 IgG (antibody, V domains shown, IgG; also called Ab15) VH: EVQLVESGGGLVQPGGSLRLSCAASGFTFSSYWMSWVRQAPGKGLEWVANINQDGSEKYYVDSVKGRFTISRDNAKNSLYLQMNSLRAEDTAVYYCAREANYYGNVGDDYWGQGTLVTVSS VL: not shown
0.54 | 0.000376 | 696000 | ADI-11825 IgG (antibody, V domains shown, IgG; also called Ab25) VH: EVQLVESGGGLVQPGGSLRLSCAASGFTFGGYWMSWVRQAPGKGLEWVANINQDGSEEYYVDSVKGRFTISRDNAKNSLYLQMNSLRAEDTAVYYCAREANYYGNVGDDYWGQGTLVTVSS VL: DIQMTQSPSSLSASVGDRVTITCRASQSIYNYLNWYQQKPGKAPKLLIYAASNLHSGVPSRFSGSGSGTDFTLTISSLQPEDFATYYCQQAFHVPITFGGGTKVEIK
1.2 | 0.000923 | 770000 | ADI-11830 IgG (antibody, V domains shown, IgG; also called Ab9) VH: EVQLVESGGGLVQPGGSLRLSCAASGFTFSSYWMSWVRQAPGKGLEWVANINTDGSEVYYVDSVKGRFTISRDNAKNSLYLQMNSLRAEDTAVYYCARDVGPGIAYQGHFDYWGQGTLVTVSS VL: DIQMTQSPSSLSASVGDRVTITCRASQVIYSYLNWYQQKPGKAPKLLIYAASSLKSGVPSRFSGSGSGTDFTLTISSLQPEDFATYYCQQVYDTPLTFGGGTKVEIK
3.7 | 0.00217 | 587000 | ADI-10161 IgG (antibody, V domains shown, IgG; also called Ab16) VH: EVQLVESGGGLVQPGGSLRLSCAASGFTFSSYWMSWVRQAPGKGLEWVANINQDGSEKYYVDSVKGRFTISRDNAKNSLYLQMNSLRAEDTAVYYCAREGGDSWYHAFDIWGQGTMVTVSS VL: DIQMTQSPSSVSASVGDRVTITCRASQGISSWLAWYQQKPGKAPKLLIYAASNLQSGVPSRFSGSGSGTDFTLTISSLQPEDFATYYCQQKLSLPLTFGGGTKVEIK
3.6 | 0.00214 | 601000 | ADI-10177 IgG (antibody, V domains shown, IgG; also called Ab2) VH: EVQLVESGGGLVQPGGSLRLSCAASGFTFSSYWMSWVRQAPGKGLEWVANIKQDGSEKYYVDSVKGRFTISRDNAKNSLYLQMNSLRAEDTAVYYCARPLNAGELDVWGQGTMVTVSS VL: DIQMTQSPSTLSASVGDRVTITCRASQSISSWLAWYQQKPGKAPKLLIYEASSLESGVPSRFSGSGSGTEFTLTISSLQPDDFATYYCQQLESYPLTFGGGTKVEIK
1.44 | 0.000229 | 159000 | ADI-11815 IgG (antibody, V domains shown, IgG; also called Ab7) VH: QVQLVQSGAEVKKPGASVKVSCKASGYTFGTYYMHWVRQAPGQGLEWMGIINPSRGSTVYAQKFQGRVTMTRDTSTSTVYMELSSLRSEDTAVYYCARGAGYDDEDMDVWGKGTTVTVSS VL: DIQMTQSPSSVSASVGDRVTITCRASQGIDSWLAWYQQKPGKAPKLLIYAASSLQSGVPSRFSGSGSGTDFTLTISSLQPEDFATYYCQQAHSYPLTFGGGTKVEIK
0.453 | 0.0002 | 441000 | ADI-11802 IgG (antibody, V domains shown, IgG; also called Ab23) VH: QVQLVQSGAEVKKPGASVKVSCKASGYTFSGYYMHWVRQAPGQGLEWMGMINPYGGSTRYAQKFQGRVTMTRDTSTSTVYMELSSLRSEDTAVYYCAREAADGFVGERYFDLWGRGTLVTVSS VL: not shown

Source: US20220380459A1 (DRAGONFLY THERAPEUTICS, published 2022)
